Positions of bridges follow the written chain, without caps; N, C: chain ends. No end group written: not given here.
B1: ACE-2 binding polypeptide RGFCRDSSCSFP (peptide)
peptide: RGFCRDSSCSFP
modifications: not fully specified (N-terminus, C-terminus, bridges); cysteine pairing not given here
B2: ACE-2 binding polypeptide SPTCRALFCVDF (peptide)
peptide: SPTCRALFCVDF
modifications: not fully specified (N-terminus, C-terminus, bridges); cysteine pairing not given here
B3: ACE-2 binding polypeptide RIGCRDSRCNWWAPG (peptide)
peptide: RIGCRDSRCNWWAPG
modifications: not fully specified (N-terminus, C-terminus, bridges); cysteine pairing not given here
B4: ACE-2 binding polypeptide WPTCLTMDCVYN (peptide)
peptide: WPTCLTMDCVYN
modifications: not fully specified (N-terminus, C-terminus, bridges); cysteine pairing not given here
B5: ACE-2 binding polypeptide PFECDWGPWTLEMLCGPP (peptide)
peptide: PFECDWGPWTLEMLCGPP
modifications: not fully specified (N-terminus, C-terminus, bridges); cysteine pairing not given here
B6: ACE-2 binding polypeptide DDDCGWIGFANFHLCLHG (peptide)
peptide: DDDCGWIGFANFHLCLHG
modifications: not fully specified (N-terminus, C-terminus, bridges); cysteine pairing not given here
B7: ACE-2 binding polypeptide WVLCFEWEDCDEK (peptide)
peptide: WVLCFEWEDCDEK
modifications: not fully specified (N-terminus, C-terminus, bridges); cysteine pairing not given here

Molecular target: T1, FLAG-tagged ACE-2 target (human, UniProt Q9BYF1 18-740)
T1 construct: range 1-740; obtained from Human Genome Sciences, Inc; also called FLAG-ACE-2; tagged human ACE-2; not shown: FLAG tag
Assay: phage ELISA on FLAG-ACE-2
Method: Phage enriched from the third round of selection were screened by ELISA for strong ACE-2 binders. Immulon 2 96-well plates (Dynatech) were coated with streptavidin for 1 hour at 37° C. and subsequently coated with anti-FLAG antibody for 1 hour at room temperature. Half of the plates were further coated with FLAG-ACE-2 as the target plates, and the other half of the plates were coated with FLAG peptide as background plates. The amount of each protein or peptide coated was 100 ng per well. The coated plates were then incubated for 1 hour at room temperature with 1:2 diluted overnight phage cultures that were made by inoculating phage from individual plaques into bacterial host cells. After being washed 7 times with PBST, the plates were incubated with HRP-conjugated anti-M13 antibody (Pharmacia) for 1 hour at room temperature, washed 5 times, developed with TMB peroxidase substrate solution (Kirkegaad & Perry Laboratories, Gaithersburg, Md.), and read at 630 nm on an ELISA plate reader.

T1 sequence (Q9BYF1 18-740 limits assumed): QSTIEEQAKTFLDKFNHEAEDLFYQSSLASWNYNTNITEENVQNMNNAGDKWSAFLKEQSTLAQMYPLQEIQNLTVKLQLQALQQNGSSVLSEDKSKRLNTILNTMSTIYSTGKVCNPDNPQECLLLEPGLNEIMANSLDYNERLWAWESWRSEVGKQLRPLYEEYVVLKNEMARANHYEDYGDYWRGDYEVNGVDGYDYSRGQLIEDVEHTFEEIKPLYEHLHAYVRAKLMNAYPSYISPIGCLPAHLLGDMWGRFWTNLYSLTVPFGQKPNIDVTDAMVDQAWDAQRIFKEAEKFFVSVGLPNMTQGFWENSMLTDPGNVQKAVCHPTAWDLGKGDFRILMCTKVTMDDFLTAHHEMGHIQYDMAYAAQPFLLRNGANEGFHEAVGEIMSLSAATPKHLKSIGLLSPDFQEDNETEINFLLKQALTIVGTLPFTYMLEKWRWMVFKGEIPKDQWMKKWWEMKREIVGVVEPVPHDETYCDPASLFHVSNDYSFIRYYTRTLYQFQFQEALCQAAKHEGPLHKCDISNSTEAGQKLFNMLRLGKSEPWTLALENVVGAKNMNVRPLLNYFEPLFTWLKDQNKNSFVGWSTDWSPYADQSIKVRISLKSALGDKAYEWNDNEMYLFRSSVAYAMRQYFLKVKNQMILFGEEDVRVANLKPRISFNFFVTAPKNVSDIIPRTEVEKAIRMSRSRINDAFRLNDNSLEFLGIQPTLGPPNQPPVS

Row | binding result | Binder
1 | binds | FNPCRLQSRDSACRFR (not fully specified (bridges); cysteine pairing not given here) [ACE-2 binding polypeptide FNPCRLQSRDSACRFR]
2 | binds | FLFCRLASRDSRCASP (not fully specified (bridges); cysteine pairing not given here) [ACE-2 binding polypeptide FLFCRLASRDSRCASP]
3 | binds | RGWCLDSRCKVF (not fully specified (bridges); cysteine pairing not given here) [ACE-2 binding polypeptide RGWCLDSRCKVF]
4 | binds | FEICFDWEVCHEQ (not fully specified (bridges); cysteine pairing not given here) [ACE-2 binding polypeptide FEICFDWEVCHEQ]
5 | binds | AYLCDWILFDSFEMCLAP (not fully specified (bridges); cysteine pairing not given here) [ACE-2 binding polypeptide AYLCDWILFDSFEMCLAP]
6 | binds | GIFCFEWETCYQA (not fully specified (bridges); cysteine pairing not given here) [ACE-2 binding polypeptide GIFCFEWETCYQA]
7 | binds | SENCQALFCVDF (not fully specified (bridges); cysteine pairing not given here) [ACE-2 binding polypeptide SENCQALFCVDF]
8 | binds | LYECEWKQFGPVEMCLNF (not fully specified (bridges); cysteine pairing not given here) [ACE-2 binding polypeptide LYECEWKQFGPVEMCLNF]
9 | binds | FDDCQTSWFQGFWLCIDD (not fully specified (bridges); cysteine pairing not given here) [ACE-2 binding polypeptide FDDCQTSWFQGFWLCIDD]
10 | binds | FHDCSWGPWGPWEICTRL (not fully specified (bridges); cysteine pairing not given here) [ACE-2 binding polypeptide FHDCSWGPWGPWEICTRL]
11 | binds | DYLCFDWEACWLS (not fully specified (bridges); cysteine pairing not given here) [ACE-2 binding polypeptide DYLCFDWEACWLS]
12 | binds | NADCEWVNFNHVDLCMWN (not fully specified (bridges); cysteine pairing not given here) [ACE-2 binding polypeptide NADCEWVNFNHVDLCMWN]
13 | binds | NRECHALFCMDF (disulfide 4-9 (inferred); not fully specified (N-terminus, C-terminus)) [ACE-2 binding polypeptide NRECHALFCMDF]
14 | binds | HLRCMTSDCIHF (not fully specified (bridges); cysteine pairing not given here) [ACE-2 binding polypeptide HLRCMTSDCIHF]
15 | binds | B1
16 | binds | HFSCRLPSLDSRCQLW (not fully specified (bridges); cysteine pairing not given here) [ACE-2 binding polypeptide HFSCRLPSLDSRCQLW]
17 | binds | HSECRWEWFGRTMICMSF (not fully specified (bridges); cysteine pairing not given here) [ACE-2 binding polypeptide HSECRWEWFGRTMICMSF]
18 | binds | YDWCFDWEQCWDQ (not fully specified (bridges); cysteine pairing not given here) [ACE-2 binding polypeptide YDWCFDWEQCWDQ]
19 | binds | B2
20 | binds | B3

Row | binding result | Binder
21 | binds | IGFCFEWEVCYEG (not fully specified (bridges); cysteine pairing not given here) [ACE-2 binding polypeptide IGFCFEWEVCYEG]
22 | binds | YAMCFDWDECFLG (not fully specified (bridges); cysteine pairing not given here) [ACE-2 binding polypeptide YAMCFDWDECFLG]
23 | binds | HYNCHTNDCVVL (not fully specified (bridges); cysteine pairing not given here) [ACE-2 binding polypeptide HYNCHTNDCVVL]
24 | binds | RGHCRDSRCMMNAPG (not fully specified (bridges); cysteine pairing not given here) [ACE-2 binding polypeptide RGHCRDSRCMMNAPG]
25 | binds | SIYCFDWEDCWDE (not fully specified (bridges); cysteine pairing not given here) [ACE-2 binding polypeptide SIYCFDWEDCWDE]
26 | binds | B4
27 | binds | GSDCEWVNFTMFQMCISN (not fully specified (bridges); cysteine pairing not given here) [ACE-2 binding polypeptide GSDCEWVNFTMFQMCISN]
28 | binds | SGECNWQQFSGWEICLRD (not fully specified (bridges); cysteine pairing not given here) [ACE-2 binding polypeptide SGECNWQQFSGWEICLRD]
29 | binds | MDFCFDWEECWTN (not fully specified (bridges); cysteine pairing not given here) [ACE-2 binding polypeptide MDFCFDWEECWTN]
30 | binds | NIFCFDWEPCHFG (not fully specified (bridges); cysteine pairing not given here) [ACE-2 binding polypeptide NIFCFDWEPCHFG]
31 | binds | NDVCLNDDCVYG (not fully specified (bridges); cysteine pairing not given here) [ACE-2 binding polypeptide NDVCLNDDCVYG]
32 | binds | FFPCRALEKDSRCSFF (not fully specified (bridges); cysteine pairing not given here) [ACE-2 binding polypeptide FFPCRALEKDSRCSFF]
33 | binds | B5
34 | binds | SNDCVWLQFWGGDMCFLP (not fully specified (bridges); cysteine pairing not given here) [ACE-2 binding polypeptide SNDCVWLQFWGGDMCFLP]
35 | binds | B6
36 | binds | B7
37 | binds | VGFCFDWEPCDEL (not fully specified (bridges); cysteine pairing not given here) [ACE-2 binding polypeptide VGFCFDWEPCDEL]
38 | binds | AWDCEWNLFDSTFFCPGF (not fully specified (bridges); cysteine pairing not given here) [ACE-2 binding polypeptide AWDCEWNLFDSTFFCPGF]
39 | binds | YEYCFEWEQCWEK (not fully specified (bridges); cysteine pairing not given here) [ACE-2 binding polypeptide YEYCFEWEQCWEK]

From patent US20030138894A1 (Human Genome Sciences, published 2003)
